Measurements from PMC11271386 (Analytical and Bioanalytical Chemistry, 2024).

T1: ^FlagDNAJB8^H31Q (human, UniProt Q8NHS0 1-232, H31Q)
T1 construct: DNAJB8, human Class B Hsp40, with the J-domain mutation H31Q; source: HEK293T, transfected (calcium phosphate), in lysate
T1 sequence (looked up): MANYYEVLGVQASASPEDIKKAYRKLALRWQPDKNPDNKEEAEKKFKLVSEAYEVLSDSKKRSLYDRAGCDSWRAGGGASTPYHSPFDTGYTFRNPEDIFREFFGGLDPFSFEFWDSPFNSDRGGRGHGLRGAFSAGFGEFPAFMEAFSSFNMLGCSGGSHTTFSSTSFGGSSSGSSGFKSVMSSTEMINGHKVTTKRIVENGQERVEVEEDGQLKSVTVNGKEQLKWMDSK

T2: ^FlagDNAJB8^WT (human, UniProt Q8NHS0 1-232)
T2 construct: DNAJB8, human Class B Hsp40 (J-domain protein); also called Hsp40 DNAJB8; source: HEK293T, transfected (calcium phosphate), in lysate
T2 sequence (looked up): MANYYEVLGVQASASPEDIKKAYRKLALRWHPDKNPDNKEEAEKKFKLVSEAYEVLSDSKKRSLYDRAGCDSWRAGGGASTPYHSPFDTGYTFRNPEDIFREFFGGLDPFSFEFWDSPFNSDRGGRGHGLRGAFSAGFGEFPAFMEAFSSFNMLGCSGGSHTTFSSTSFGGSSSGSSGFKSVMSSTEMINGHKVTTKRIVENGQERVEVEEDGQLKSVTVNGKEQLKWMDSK


Experiments:
[1] = target: T1, ^FlagDNAJB8^H31Q; assay: affinity purification with mass spectrometry; TMT-AP-MS comparing four conditions: ^FlagDNAJB8 WT vs. H31Q, with or without 1 mM DSP crosslinking of the cells before lysis; RIPA lysis and washes, M2 anti-Flag beads; crosslinks reversed with TCEP; three biological replicates; settings: partners not purified
[2] = target: T2, ^FlagDNAJB8^WT; assay: as above; settings: partners not purified

| fold change recovery with DSP crosslinking against without [1] | fold change recovery with DSP crosslinking against without [2] | fold change of recovery with DNAJB8^H31Q compared to DNAJB8^WT, −DSP [1] | Binder |
| --- | --- | --- | --- |
| 3.2 ± 0.8% | 4.8 ± 0.7% |  | 14–3-3θ/YWHAQ (natural protein, human (endogenous in HEK293T), UniProt P27348 1-245, looked up, 14-3-3 theta (YWHAQ), human; source: endogenous, HEK293T lysate) MEKTELIQKAKLAEQAERYDDMATCMKAVTEQGAELSNEERNLLSVAYKNVVGGRRSAWRVISSIEQKTDTSDKKLQLIKDYREKVESELRSICTTVLELLDKYLIANATNPESKVFYLKMKGDYFRYLAEVACGDDRKQTIDNSQGAYQEAFDISKKEMQPTHPIRLGLALNFSVFYYEILNNPELACTLAKTAFDEAIAELDTLNEDSYKDSTLIMQLLRDNLTLWTSDSAGEECDAAEGAEN |
|  |  | 3.4 ± 0.9 fold | PFDN1 (natural protein, human (endogenous in HEK293T), UniProt O60925 1-122, looked up, PFDN1, prefoldin β subunit, human; also called prefoldin β subunit; source: endogenous, HEK293T lysate) MAAPVDLELKKAFTELQAKVIDTQQKVKLADIQIEQLNRTKKHAHLTDTEIMTLVDETNMYEGVGRMFILQSKEAIHSQLLEKQKIAEEKIKELEQKKSYLERSVKEAEDNIREMLMARRAQ |
